This note sets out measurements from PMC7558102, “Hybrid Multimodal Imaging Synthons for Chemoselective and Efficient Biomolecule Modification with Chelator and Near-Infrared Fluorescent Cyanine Dye” (Pharmaceuticals, 2020).

A short description of the data set: photophysical properties (absorbance and emission measurements). The format is physicochemical. The conditions noted are these: for λmax(em): excitation wavelength λex = 650 nm. Here is the method: Finally, the photophysical properties were determined for dyes, MIS and their conjugates. It could be shown that the photophysical properties remained largely unaltered, including absorption coefficients and emission characteristics (Table 1). […] The only change in photophysical properties we qualitatively observed was an increase in the quantum yields of the dye conjugates compared to their unconjugated leads 1–3, an effect that was described before and can be attributed to the conjugation of sterically demanding groups (such as the PESIN homodimers used here), resulting in a decrease in aggregation of the dye molecules and thus a reduced fluorescence quenching. γ-Counting was performed using a 2480 Wizard gamma counter system from Perkin Elmer. A Cary 100 Bio system (Varian) was used to record the UV/Vis-Spectra together with 4 mL PMMA cuvettes from Sigma-Aldrich. Furthermore, for absorbance and emission measurements, a Tecan Infinite M200 Microplate reader together with a Nunc Micro-Well 96 solid plate from ThermoFisher was used.

Turning to `CSCC[C@H](NC(=O)[C@H](CC(C)C)NC(=O)[C@H](Cc1c[nH]cn1)NC(=O)CNC(=O)[C@@H](NC(=O)[C@H](C)NC(=O)[C@H](Cc1c[nH]c2ccccc12)NC(=O)[C@H](CCC(N)=O)NC(=O)CCOCCOCCOCCOCCNC(=O)CON=Cc1ccc(C(=O)NCCCN(CCCNC(=O)c2ccc(C=NOCC(=O)NCCOCCOCCOCCOCCC(=O)N[C@@H](CCC(N)=O)C(=O)N[C@@H](Cc3c[nH]c4ccccc34)C(=O)N[C@@H](C)C(=O)N[C@H](C(=O)NCC(=O)N[C@@H](Cc3c[nH]cn3)C(=O)N[C@@H](CC(C)C)C(=O)N[C@@H](CCSC)C(N)=O)C(C)C)cc2)CC(=O)N[C@H](CSC2CC(=O)N(CCN3C(=O)CC(SC[C@H](NC(=O)[C@H](CCCCNC(=O)c4ccc(C5=C(C=CC6=[N+](CCCCS(=O)(=O)[O-])c7ccc8ccccc8c7C6(C)C)CCCC5=CC=C5N(CCCCS(=O)(=O)O)c6ccc7ccccc7c6C5(C)C)cc4)NC(=O)CC[C@H](C(=O)O)N4CCN(CC(=O)O)CCN(CC(=O)O)CC4)C(N)=O)C3=O)C2=O)C(=O)NCCOCCOCC(N)=O)cc1)C(C)C)C(N)=O` (stereo partly drawn) [Compound 14], the “Stokes Shift” value stood at 10 nm, the “λmax(abs)” value is reported as 735/810 and the “λmax(em)” value is listed as 820 nm.

With `CSCC[C@H](NC(=O)[C@H](CC(C)C)NC(=O)[C@H](Cc1c[nH]cn1)NC(=O)CNC(=O)[C@@H](NC(=O)[C@H](C)NC(=O)[C@H](Cc1c[nH]c2ccccc12)NC(=O)[C@H](CCC(N)=O)NC(=O)CCOCCOCCOCCOCCNC(=O)CON=Cc1ccc(C(=O)NCCCN(CCCNC(=O)c2ccc(C=NOCC(=O)NCCOCCOCCOCCOCCC(=O)N[C@@H](CCC(N)=O)C(=O)N[C@@H](Cc3c[nH]c4ccccc34)C(=O)N[C@@H](C)C(=O)N[C@H](C(=O)NCC(=O)N[C@@H](Cc3c[nH]cn3)C(=O)N[C@@H](CC(C)C)C(=O)N[C@@H](CCSC)C(N)=O)C(C)C)cc2)CC(=O)N[C@H](CSC2CC(=O)N(CCN3C(=O)CC(SC[C@H](NC(=O)[C@H](CCCCNC(=O)CCc4ccc(C5=C(C=CC6=[N+](CCCCS(=O)(=O)[O-])c7ccc(S(=O)(=O)O)cc7C6(C)C)CCCC5=CC=C5N(CCCCS(=O)(=O)O)c6ccc(S(=O)(=O)O)cc6C5(C)C)cc4)NC(=O)CC[C@H](C(=O)O)N4CCN(CC(=O)O)CCN(CC(=O)O)CC4)C(N)=O)C3=O)C2=O)C(=O)NCCOCCOCC(N)=O)cc1)C(C)C)C(N)=O` (stereo partly drawn) [Compound 16], the “Stokes Shift” value was 20 nm, the “λmax(abs)” value is recorded as 700/770 and the “λmax(em)” value was determined as 790 nm.

In the case of `CSCC[C@H](NC(=O)[C@H](CC(C)C)NC(=O)[C@H](Cc1c[nH]cn1)NC(=O)CNC(=O)[C@@H](NC(=O)[C@H](C)NC(=O)[C@H](Cc1c[nH]c2ccccc12)NC(=O)[C@H](CCC(N)=O)NC(=O)CCOCCOCCOCCOCCNC(=O)CON=Cc1ccc(C(=O)NCCCN(CCCNC(=O)c2ccc(C=NOCC(=O)NCCOCCOCCOCCOCCC(=O)N[C@@H](CCC(N)=O)C(=O)N[C@@H](Cc3c[nH]c4ccccc34)C(=O)N[C@@H](C)C(=O)N[C@H](C(=O)NCC(=O)N[C@@H](Cc3c[nH]cn3)C(=O)N[C@@H](CC(C)C)C(=O)N[C@@H](CCSC)C(N)=O)C(C)C)cc2)CC(=O)N[C@H](CSC2CC(=O)N(CCN3C(=O)CC(SC[C@H](NC(=O)[C@H](CCCCNC(=O)c4ccc5c(c4)C(C)(C)C(C=CC4=C(c6ccccc6)C(=CC=C6N(CCCCS(=O)(=O)O)c7ccc(S(=O)(=O)O)cc7C6(C)C)CCC4)=[N+]5CCCCS(=O)(=O)[O-])NC(=O)CC[C@H](C(=O)O)N4CCN(CC(=O)O)CCN(CC(=O)O)CC4)C(N)=O)C3=O)C2=O)C(=O)NCCOCCOCC(N)=O)cc1)C(C)C)C(N)=O` (stereo partly drawn) [Compound 15], the “Stokes Shift” value is on record as 30 nm, the “λmax(abs)” value is reported as 705/770 and the “λmax(em)” value is listed as 800 nm.
